Measurements from US20150018528A1 (Novo Nordisk, published 2015).
Values belong to the binder of their own block, whether it stands above or below them.

Experiments:
[1] = biological target: T1, Type II PGLYRP4 on HEK293-6E cells (human, UniProt Q96LB8 18-373); experiment: flow cytometry on transfected HEK293-6E cells
T1 construct: also called hPGLYRP4; PGRP-1b
T1 sequence: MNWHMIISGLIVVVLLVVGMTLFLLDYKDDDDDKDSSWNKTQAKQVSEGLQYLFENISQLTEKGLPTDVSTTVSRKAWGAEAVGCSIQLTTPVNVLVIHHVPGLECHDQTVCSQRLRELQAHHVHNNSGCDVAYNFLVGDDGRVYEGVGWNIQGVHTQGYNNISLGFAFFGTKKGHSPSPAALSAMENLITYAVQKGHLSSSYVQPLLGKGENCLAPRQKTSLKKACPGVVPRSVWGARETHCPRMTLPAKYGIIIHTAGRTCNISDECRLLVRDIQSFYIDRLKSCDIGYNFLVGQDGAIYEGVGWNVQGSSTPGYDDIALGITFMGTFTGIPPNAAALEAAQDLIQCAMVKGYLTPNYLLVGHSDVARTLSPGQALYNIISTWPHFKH
Description: (§1) 51.2090KZ, BD Biosciences, San Jose Calif., USA) for intracellular staining or 2% FBS/PBS for surface staining: cell pellets were resuspended in a 96-well round bottom plate (to begin with: 160,000 cells/well) with 200 μl cytofix/perm buffer for 15 minutes at 22 C., washed twice with 200 μl 1× PermWash Buffer (diluted 10× in DiH20), stained with 50 μl probe diluted to 5 µg/ml in 1× PermWash buffer, incubated for 1 hour at 4 C., cells were then washed with 200 μl 1× PermWash Buffer, a secondary probe was added in 50 μl 1× PermWash buffer, cells were incubated at 4 C. for 30 minutes, washed twice with 200 μl 1× PermWash Buffer, pellets were resuspended in 50 μl 1:1 PBS diluted CytoFix (BD:554655, San Jose, Calif.), incubated for 5 minutes at 22 C., 150 μl PBS/2% FBS was added, centrifuged for 5 minutes at 300 g, washed 1× with 200 μl PBS/2% FBS and resuspended in 100 μl PBS/2% FBS. Binding was analysed using FACS on LSRII (BD, San Jose Calif., USA).

[2] = biological target: T2, Type II PGLYRP2 on HEK293-6E cells (human, UniProt Q96PD5 22-576); experiment: flow cytometry on transfected HEK293-6E cells
T2 construct: also called hPGLYRP2; PGRP-L
T2 sequence: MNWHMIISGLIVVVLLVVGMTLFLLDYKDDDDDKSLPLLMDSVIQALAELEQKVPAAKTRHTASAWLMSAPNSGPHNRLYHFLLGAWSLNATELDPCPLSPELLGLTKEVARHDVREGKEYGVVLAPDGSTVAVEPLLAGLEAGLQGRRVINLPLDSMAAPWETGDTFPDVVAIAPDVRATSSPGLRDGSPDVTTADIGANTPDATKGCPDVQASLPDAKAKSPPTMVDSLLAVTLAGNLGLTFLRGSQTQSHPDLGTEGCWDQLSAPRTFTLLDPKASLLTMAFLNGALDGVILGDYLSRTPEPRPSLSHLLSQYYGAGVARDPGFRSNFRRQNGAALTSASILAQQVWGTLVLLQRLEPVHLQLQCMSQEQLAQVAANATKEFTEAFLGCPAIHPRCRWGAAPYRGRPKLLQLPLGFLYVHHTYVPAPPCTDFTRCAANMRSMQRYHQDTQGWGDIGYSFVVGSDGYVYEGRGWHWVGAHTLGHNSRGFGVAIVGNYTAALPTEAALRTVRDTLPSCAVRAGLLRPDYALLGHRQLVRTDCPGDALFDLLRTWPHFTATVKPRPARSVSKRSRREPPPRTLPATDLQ
Description: as §1

[3] = biological target: T3, recombinant human PGLYRP1 generated in-house (SEQ ID NO: 1) (human, UniProt O75594 22-196); experiment: direct ELISA on PGLYRP1 protein (primary screening of hybridoma supernatants)
T3 sequence: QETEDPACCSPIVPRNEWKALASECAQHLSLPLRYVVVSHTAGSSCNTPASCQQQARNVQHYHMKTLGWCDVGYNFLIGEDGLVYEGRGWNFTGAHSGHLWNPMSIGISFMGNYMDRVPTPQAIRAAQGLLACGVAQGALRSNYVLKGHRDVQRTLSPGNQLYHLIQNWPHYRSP

[4] = biological target: T4, Type II muPGLYRP1 on HEK293-6E cells (mouse, UniProt O88593 19-182); experiment: flow cytometry on transfected HEK293-6E cells
T4 construct: whole, on cells; also called mouse PGLYRP1; not shown: Type II membrane anchor; construct is not described in the text
T4 sequence (looked up): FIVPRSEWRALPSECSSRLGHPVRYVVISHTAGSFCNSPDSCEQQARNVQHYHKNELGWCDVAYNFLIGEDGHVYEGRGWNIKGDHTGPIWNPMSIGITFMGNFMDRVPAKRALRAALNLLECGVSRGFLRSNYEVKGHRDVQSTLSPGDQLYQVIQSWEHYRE
Description: as §1

[5] = biological target: T5, endogenous human PGLYRP1 (neutrophils; RA synovial fluid) (human, UniProt O75594 22-196); experiment: crosslinking, immunoprecipitation and LC/MS/MS from human neutrophils; CD83-Fc as control bait
T5 construct: also called PGRP-S; neutrophil-derived PGLYRP1
T5 sequence (looked up): T3 sequence

B2: huTREML2.Fc dimer (C0247) (Fc fusion)
chain: GPSADSVYTKVRLLEGETLSVQCSYKGYKNRVEGKVWCKIRKKKCEPGFARVWVKGPRYLLQDDAQAKVVNITMVALKLQDSGRYWCMRNTSGILYPLMGFQLDVSPAPQTERNIPFTHLDNILKSGTVTTGQAPTSGPDAPFTTGVMVFTPGLITLPRLLASTRPASKTGYSFTATSTTSQGPRRTMGSQTVTASPSNARDSSAGPESISTKSGDLSTRSPTTGLCLTSRSLLNRLPSMPSIRHQDVYSGTEPKSSDKTHTCPPCPAPEAEGAPSVFLFPPKPKDTLMISRTPEVTCVVVDVSHEDPEVKFNWYVDGVEVHNAKTKPREEQYNSTYRVVSVLTVLHQDWLNGKEYKCKVSNKALPSSIEKTISKAKGQPREPQVYTLPPSREEMTKNQVSLTCLVKGFYPSDIAVEWESNGQPENNYKTTPPVLDSDGSFFLYSKLTVDKSRWQQGNVFSCSVMHEALHNHYTQKSLSLSPGK
notes: Entry may hold the hCD33 leader; code tied by the name of the construct only; also called huTremL2.Fc (C0247); hTREML2-Fc6mut dimer
- ratio of MFI of probe staining over negative control staining [1]: < 1 ratio
- ratio of MFI of probe staining over negative control staining [2]: < 1 ratio

B3: M-hPGRPS-2F7 (antibody, V domains shown)
VH: EVQLQQSGPEVVKPGTSVKMSCKASGYTFTNYVMHWVRQKPGQGLEWVGWINPFNDGTNYNENFKNKATLTSDKSSSTAYMELSSLTSEDSAVYYCARSGFITTLIEDYWGQGTTLTVSS
VL: NIVMTQSPKYMSMSVGERVTLTCKASESVGSFVSWYQQKADQSPNLLIYGASNRYTGVPDRFTGSGSARDFTLTISSVQAKDLAEYYCGQYYTHPTFGAGTKLELKR
notes: Tested as hybridoma supernatant
- binding result [3]: binds

B4: huTREML1.Fc dimer (C0246) (Fc fusion)
chain: QGIVGSLPEVLQAPVGSSILVQCHYRLQDVKAQKVWCRFLPEGCQPLVSSAVDRRAPAGRRTFLTDLGGGLLQVEMVTLQEEDAGEYGCMVDGARGPQILHRVSLNILPPEEEEETHKIGSLAENAFSDPAGSANPLEPSQDEKSIPGTEPKSSDKTHTCPPCPAPEAEGAPSVFLFPPKPKDTLMISRTPEVTCVVVDVSHEDPEVKFNWYVDGVEVHNAKTKPREEQYNSTYRVVSVLTVLHQDWLNGKEYKCKVSNKALPSSIEKTISKAKGQPREPQVYTLPPSREEMTKNQVSLTCLVKGFYPSDIAVEWESNGQPENNYKTTPPVLDSDGSFFLYSKLTVDKSRWQQGNVFSCSVMHEALHNHYTQKSLSLSPGK
notes: Entry may hold the hCD33 leader; code tied by the name of the construct only; also called huTremL1.Fc (C0246); hTREML1-Fc6mut dimer
- ratio of MFI of probe staining over negative control staining [1]: < 1 ratio
- ratio of MFI of probe staining over negative control staining [2]: < 1 ratio
- ratio of MFI of probe staining over negative control staining [4]: < 1 ratio

Second part, the binder after the results:

- ratio of MFI of probe staining over negative control staining [1]: < 1 ratio
- ratio of MFI of probe staining over negative control staining [2]: < 1 ratio
B1: huTREM2.Fc dimer (C0248) (Fc fusion)
chain: HNTTVFQGVAGQSLQVSCPYDSMKHWGRRKAWCRQLGEKGPCQRVVSTHNLWLLSFLRRWNGSTAITDDTLGGTLTITLRNLQPHDAGLYQCQSLHGSEADTLRKVLVEVLADPLDHRDAGDLWFPGESESFEDAHVEHSISRSLLEGEIPFPPTSGTEPKSSDKTHTCPPCPAPEAEGAPSVFLFPPKPKDTLMISRTPEVTCVVVDVSHEDPEVKFNWYVDGVEVHNAKTKPREEQYNSTYRVVSVLTVLHQDWLNGKEYKCKVSNKALPSSIEKTISKAKGQPREPQVYTLPPSREEMTKNQVSLTCLVKGFYPSDIAVEWESNGQPENNYKTTPPVLDSDGSFFLYSKLTVDKSRWQQGNVFSCSVMHEALHNHYTQKSLSLSPGK
notes: Entry may hold the hCD33 leader; code tied by the name of the construct only; also called huTrem2.Fc (C0248); hTREM2-Fc6mut dimer

- binding result [3]: binds
B5: M-hPGRPS-2F5 (antibody, V domains shown)
VH: EVQLVESGGGLVKPGGSLKLSCAASGFSFSDYYMYWVRQTPEKRLEWVAAISDDSTYTYYPDSVKGRFTISRDNAKNNLYLQMSSLKSEDTAMYYCARGGYGNLYAMDYWGQGTSVTVSS
VL: QIVLTQSPAIMSASLGERVTMTCTASSSVSSSYLHWYQQKPGSSPKLWIYSTSNLASGVPARFSGSGSGTSYSLTISSMEAEDAATYYCHQYHRSPFTFGSGTKLEIKR
notes: as for B3

- binding result [5]: no binding (tested: 100 µg/ml)
B6: hCD83-G4Sx3-hCD83/Fc6mut (CD83-Fc, hCD83 tetramer) (Fc fusion)
chain: TPEVKVACSEDVDLPCTAPWDPQVPYTVSWVKLLEGGEERMETPQEDHLRGQHYHQKGQNGSFDAPNERPYSLKIRNTTSCNSGTYRCTLQDPDGQRNLSGKVILRVTGCPAQRKEETFKKYRAEGTGGGGSGGGGSGGGGSTPEVKVACSEDVDLPCTAPWDPQVPYTVSWVKLLEGGEERMETPQEDHLRGQHYHQKGQNGSFDAPNERPYSLKIRNTTSCNSGTYRCTLQDPDGQRNLSGKVILRVTGCPAQRKEETFKKYRAEGALAGTEPKSSDKTHTCPPCPAPEAEGAPSVFLFPPKPKDTLMISRTPEVTCVVVDVSHEDPEVKFNWYVDGVEVHNAKTKPREEQYNSTYRVVSVLTVLHQDWLNGKEYKCKVSNKALPSSIEKTISKAKGQPREPQVYTLPPSREEMTKNQVSLTCLVKGFYPSDIAVEWESNGQPENNYKTTPPVLDSDGSFFLYSKLTVDKSRWQQGNVFSCSVMHEALHNHYTQKSLSLSPGK
notes: also called control construct (CD83); control protein
